Our source for the IC50, DX3puroβ6 (αvβ6+)/DX3puro (αvβ6-) selectivity ratio and % binding to cells values is patent US20210340181A1.

T1: αvβ8 integrin (purified), P06756
T1 chain 1: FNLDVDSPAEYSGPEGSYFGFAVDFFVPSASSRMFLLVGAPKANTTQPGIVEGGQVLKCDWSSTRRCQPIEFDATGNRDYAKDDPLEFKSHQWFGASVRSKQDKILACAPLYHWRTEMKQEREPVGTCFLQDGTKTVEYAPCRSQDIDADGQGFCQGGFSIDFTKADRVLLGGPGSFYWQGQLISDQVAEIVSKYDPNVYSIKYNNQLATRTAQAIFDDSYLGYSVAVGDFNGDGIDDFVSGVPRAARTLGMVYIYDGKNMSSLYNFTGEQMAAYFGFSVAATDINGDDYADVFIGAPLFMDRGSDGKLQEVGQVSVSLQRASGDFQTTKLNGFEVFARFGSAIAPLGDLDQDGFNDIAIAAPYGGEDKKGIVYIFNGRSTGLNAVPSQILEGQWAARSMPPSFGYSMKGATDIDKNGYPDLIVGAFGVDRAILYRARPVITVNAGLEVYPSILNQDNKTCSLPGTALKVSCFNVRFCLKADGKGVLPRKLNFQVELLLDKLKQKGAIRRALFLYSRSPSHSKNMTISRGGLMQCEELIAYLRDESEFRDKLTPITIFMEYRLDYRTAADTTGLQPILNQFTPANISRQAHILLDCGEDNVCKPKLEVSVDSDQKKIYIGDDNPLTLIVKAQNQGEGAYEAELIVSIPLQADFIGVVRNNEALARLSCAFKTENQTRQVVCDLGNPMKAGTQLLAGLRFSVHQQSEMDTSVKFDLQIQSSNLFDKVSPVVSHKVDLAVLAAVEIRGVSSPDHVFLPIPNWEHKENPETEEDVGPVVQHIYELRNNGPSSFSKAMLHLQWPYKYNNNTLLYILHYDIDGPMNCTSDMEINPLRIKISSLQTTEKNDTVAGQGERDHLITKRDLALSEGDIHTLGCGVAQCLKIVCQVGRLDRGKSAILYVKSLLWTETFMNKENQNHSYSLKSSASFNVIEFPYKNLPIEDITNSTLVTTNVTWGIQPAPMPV
T1 chain 2: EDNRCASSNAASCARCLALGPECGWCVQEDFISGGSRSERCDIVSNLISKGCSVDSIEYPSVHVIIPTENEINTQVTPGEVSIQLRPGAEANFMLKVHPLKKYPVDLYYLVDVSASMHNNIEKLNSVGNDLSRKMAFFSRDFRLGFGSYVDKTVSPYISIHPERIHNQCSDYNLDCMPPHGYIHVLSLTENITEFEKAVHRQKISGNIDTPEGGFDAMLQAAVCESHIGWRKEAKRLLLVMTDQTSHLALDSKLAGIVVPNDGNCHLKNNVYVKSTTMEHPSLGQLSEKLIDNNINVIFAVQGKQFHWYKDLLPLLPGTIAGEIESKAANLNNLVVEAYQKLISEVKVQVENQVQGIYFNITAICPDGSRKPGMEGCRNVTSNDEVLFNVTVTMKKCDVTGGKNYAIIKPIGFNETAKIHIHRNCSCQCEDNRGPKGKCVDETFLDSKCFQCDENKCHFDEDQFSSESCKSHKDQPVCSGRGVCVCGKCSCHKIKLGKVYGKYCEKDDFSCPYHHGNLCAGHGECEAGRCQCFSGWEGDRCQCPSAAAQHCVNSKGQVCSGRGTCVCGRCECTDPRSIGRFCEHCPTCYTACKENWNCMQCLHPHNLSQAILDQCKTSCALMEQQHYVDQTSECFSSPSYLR

T2: αvβ6 integrin (purified), P06756
T2 chain 1: T1 chain 1
T2 chain 2: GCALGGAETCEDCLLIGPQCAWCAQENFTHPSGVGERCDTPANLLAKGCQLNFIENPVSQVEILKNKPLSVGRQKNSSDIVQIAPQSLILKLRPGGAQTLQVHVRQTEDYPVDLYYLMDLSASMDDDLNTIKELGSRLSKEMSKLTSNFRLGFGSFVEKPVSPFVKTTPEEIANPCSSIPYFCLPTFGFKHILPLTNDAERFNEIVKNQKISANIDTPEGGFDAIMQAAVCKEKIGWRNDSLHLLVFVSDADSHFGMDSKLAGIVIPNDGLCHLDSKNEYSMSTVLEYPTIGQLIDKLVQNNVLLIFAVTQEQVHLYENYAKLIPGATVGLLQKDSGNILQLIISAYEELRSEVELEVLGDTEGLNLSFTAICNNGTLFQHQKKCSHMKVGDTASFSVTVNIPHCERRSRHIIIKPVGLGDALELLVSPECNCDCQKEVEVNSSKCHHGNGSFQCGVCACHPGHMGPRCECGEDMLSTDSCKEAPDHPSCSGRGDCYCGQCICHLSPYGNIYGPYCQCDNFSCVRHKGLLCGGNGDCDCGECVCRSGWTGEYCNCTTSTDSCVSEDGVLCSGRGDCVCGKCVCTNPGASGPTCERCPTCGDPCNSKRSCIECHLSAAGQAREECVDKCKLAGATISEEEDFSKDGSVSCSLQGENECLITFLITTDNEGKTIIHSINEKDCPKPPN

T3: αvβ6 integrin on DX3puroβ6 (αvβ6+) cells (human), P06756
T3 chain 1: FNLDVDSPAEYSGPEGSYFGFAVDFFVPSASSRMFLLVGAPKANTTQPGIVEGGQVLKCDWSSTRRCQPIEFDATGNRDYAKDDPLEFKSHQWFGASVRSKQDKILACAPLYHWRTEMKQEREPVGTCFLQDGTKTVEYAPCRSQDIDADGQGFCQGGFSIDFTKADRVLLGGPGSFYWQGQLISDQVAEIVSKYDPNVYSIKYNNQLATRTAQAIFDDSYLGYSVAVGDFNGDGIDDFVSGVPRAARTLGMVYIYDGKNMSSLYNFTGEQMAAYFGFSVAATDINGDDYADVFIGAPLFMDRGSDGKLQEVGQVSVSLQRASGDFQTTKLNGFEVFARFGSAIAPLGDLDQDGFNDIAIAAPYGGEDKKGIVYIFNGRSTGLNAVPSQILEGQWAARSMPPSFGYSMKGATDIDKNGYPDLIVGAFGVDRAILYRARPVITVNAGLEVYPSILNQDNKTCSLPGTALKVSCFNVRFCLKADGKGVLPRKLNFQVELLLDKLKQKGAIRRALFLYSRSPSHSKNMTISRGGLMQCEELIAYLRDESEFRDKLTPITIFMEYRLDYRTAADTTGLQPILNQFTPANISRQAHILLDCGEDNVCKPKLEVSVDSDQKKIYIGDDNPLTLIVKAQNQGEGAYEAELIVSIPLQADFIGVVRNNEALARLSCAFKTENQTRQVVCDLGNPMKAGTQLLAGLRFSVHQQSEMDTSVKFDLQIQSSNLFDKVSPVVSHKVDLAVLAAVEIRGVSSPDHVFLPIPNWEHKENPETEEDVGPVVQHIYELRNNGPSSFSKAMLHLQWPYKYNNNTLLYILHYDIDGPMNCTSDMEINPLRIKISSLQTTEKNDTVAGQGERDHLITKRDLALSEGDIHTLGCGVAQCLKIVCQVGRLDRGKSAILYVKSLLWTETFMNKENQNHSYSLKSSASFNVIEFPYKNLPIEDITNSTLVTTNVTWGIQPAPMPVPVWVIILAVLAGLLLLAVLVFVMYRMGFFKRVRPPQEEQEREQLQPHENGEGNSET
T3 chain 2: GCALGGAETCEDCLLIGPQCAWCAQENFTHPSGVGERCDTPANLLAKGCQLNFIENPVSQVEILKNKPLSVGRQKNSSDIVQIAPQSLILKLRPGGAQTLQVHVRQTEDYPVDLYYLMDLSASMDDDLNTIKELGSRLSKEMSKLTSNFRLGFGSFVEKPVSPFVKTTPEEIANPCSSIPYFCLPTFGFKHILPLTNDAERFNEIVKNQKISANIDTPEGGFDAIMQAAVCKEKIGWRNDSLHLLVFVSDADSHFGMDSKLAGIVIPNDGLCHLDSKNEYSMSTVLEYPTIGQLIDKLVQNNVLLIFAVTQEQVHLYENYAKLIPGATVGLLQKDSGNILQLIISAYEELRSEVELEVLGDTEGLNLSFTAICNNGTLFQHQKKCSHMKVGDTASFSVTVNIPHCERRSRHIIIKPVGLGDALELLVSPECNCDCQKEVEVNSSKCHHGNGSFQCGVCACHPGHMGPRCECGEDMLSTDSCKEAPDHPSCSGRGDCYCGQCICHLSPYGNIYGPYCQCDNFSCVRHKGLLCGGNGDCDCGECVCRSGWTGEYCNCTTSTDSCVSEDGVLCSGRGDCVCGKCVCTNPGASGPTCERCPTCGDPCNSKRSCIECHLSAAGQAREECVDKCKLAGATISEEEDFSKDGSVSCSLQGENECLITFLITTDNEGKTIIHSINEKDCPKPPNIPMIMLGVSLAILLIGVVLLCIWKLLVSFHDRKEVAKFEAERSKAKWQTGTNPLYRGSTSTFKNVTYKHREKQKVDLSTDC

One assay concerns the target T1, αvβ8 integrin (purified), P06756. The assay can be described thus: competitive ELISA vs BtLAP.
By IC50 is commonly meant the concentration at which inhibition is half-maximal. Low readings indicate inhibition by little substance, high ones a need for much substance. On to VGDLTYLKK (modifications not checked) [P1, …(FB)], for which the IC50 came to 5300 nM.

Regarding RGDLADLRK (modifications not checked) [P3, …(FB)], the IC50 was 200 nM.

The next assay deals with T2, αvβ6 integrin (purified), P06756. Briefly: competitive ELISA vs BtLAP.
Molecule VGDLTYLKK (modifications not checked) [P1, …(FB)] gave a half-inhibitory concentration (IC50) of 450 nM.

In turn, RGDLADLRK (modifications not checked) [P3, …(FB)] showed an IC50 of 420 nM.

With RSDLTPLF (modifications not checked) [KL3, FB-RSDLTPLF], the IC50 is 1700 nM. Compared with the last molecule, the IC50 is about 4-fold higher.

GRGDLGRL (modifications not checked) [SFLAP3-8mer, FB-GRGDLGRL] showed an IC50 of 89 nM.

Turning to RTDLDSLRT (modifications not checked) [RTD-9mer, FB-…], the IC50 stood at 22 nM.

The target in the next assay is T3, αvβ6 integrin on DX3puroβ6 (αvβ6+) …. Briefly: 18F peptide cell binding, αvβ6+ over αvβ6- cells.
On to RGDLQVLA (modifications not checked) [A20-8mer, FB-RGDLQVLA], for which the DX3puroβ6 (αvβ6+)/DX3puro (αvβ6-) selectivity ratio amounted to 7.8.

As to VGDLTYLKK (modifications not checked) [P1, …(FB)], the DX3puroβ6 (αvβ6+)/DX3puro (αvβ6-) selectivity ratio turned out to be 1.1.

As to RGDLADLRK (modifications not checked) [P3, …(FB)], the DX3puroβ6 (αvβ6+)/DX3puro (αvβ6-) selectivity ratio turned out to be 1.4.

As for RSDLTPLF (modifications not checked) [KL3, FB-RSDLTPLF], the DX3puroβ6 (αvβ6+)/DX3puro (αvβ6-) selectivity ratio is 0.9.

Consider GRGDLGRL (modifications not checked) [SFLAP3-8mer, FB-GRGDLGRL], for which the DX3puroβ6 (αvβ6+)/DX3puro (αvβ6-) selectivity ratio was determined as 1.4.

As for RGDLQVLAQKVART (modifications not checked) [A20-14mer, FB-…], the DX3puroβ6 (αvβ6+)/DX3puro (αvβ6-) selectivity ratio is 8.4.

As for RTDLDSLRT (modifications not checked) [RTD-9mer, FB-…], the DX3puroβ6 (αvβ6+)/DX3puro (αvβ6-) selectivity ratio was 1.7.

Another assay has the same target. The assay can be described thus: 18F peptide binding to DX3puroβ6 (αvβ6+) cells, 1 h, gamma counting.
As for VGDLTYLKK (modifications not checked) [P1, …(FB)], the % binding to cells worked out at 12.8%.

RGDLADLRK (modifications not checked) [P3, …(FB)] displayed a % binding to cells of 10.8%.

Molecule RSDLTPLF (modifications not checked) [KL3, FB-RSDLTPLF] gave a % binding to cells of 0.7%.
